{"source": "paper PMC11051826", "about": "“Screening and Application of DNA Aptamers for Heparin-Binding Protein”", "key": {"[1]": {"target": "T1, Heparin-binding protein (HBP) (Homo sapiens, UniProt P20160 27-248)", "T1 sequence": "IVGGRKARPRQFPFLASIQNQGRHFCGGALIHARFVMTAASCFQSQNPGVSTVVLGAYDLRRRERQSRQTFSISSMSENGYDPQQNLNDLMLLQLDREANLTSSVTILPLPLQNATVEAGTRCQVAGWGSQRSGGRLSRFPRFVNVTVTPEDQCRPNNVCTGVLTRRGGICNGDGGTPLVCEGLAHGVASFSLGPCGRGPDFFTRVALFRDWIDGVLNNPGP", "experiment": "SPR; SPR: Biacore T200, CM5 with 815 RU HBP, aptamer 0-1 uM in PBS (NaCl 137 mM, KCl 2.67 mM, Na2HPO4 10 mM, KH2PO4 2 mM, pH 7.4; composition given for CD), 25 C; flow: 500 nM aptamer, PBS, room temperature, 60 min", "details": "protein: commercial"}, "[2]": {"target": "T1, Heparin-binding protein (HBP)", "experiment": "SPR; HBP immobilized, PBS, 25 C; SPR: Biacore T200, CM5 with 815 RU HBP, aptamer 0-1 uM in PBS (NaCl 137 mM, KCl 2.67 mM, Na2HPO4 10 mM, KH2PO4 2 mM, pH 7.4; composition given for CD), 25 C; flow: 500 nM aptamer, PBS, room temperature, 60 min", "details": "protein: commercial; label: FAM in flow cytometry"}, "Interleukin-6 (IL-6)": {"target": "Interleukin-6 (IL-6) (UniProt P05231 30-212)", "sequence (P05231 30-212)": "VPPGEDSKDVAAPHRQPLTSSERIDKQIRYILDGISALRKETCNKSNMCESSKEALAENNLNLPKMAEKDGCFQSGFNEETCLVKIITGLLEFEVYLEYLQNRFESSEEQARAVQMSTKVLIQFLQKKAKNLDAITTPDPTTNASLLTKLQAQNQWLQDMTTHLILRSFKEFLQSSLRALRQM", "experiment": "flow cytometry (magnetic beads); 500 nM aptamer; SPR: Biacore T200, CM5 with 815 RU HBP, aptamer 0-1 uM in PBS (NaCl 137 mM, KCl 2.67 mM, Na2HPO4 10 mM, KH2PO4 2 mM, pH 7.4; composition given for CD), 25 C; flow: 500 nM aptamer, PBS, room temperature, 60 min", "details": "protein: commercial; label: FAM in flow cytometry"}, "C-reactive protein (CRP)": {"target": "T2, C-reactive protein (CRP) (UniProt P02741 19-224)", "T2 sequence": "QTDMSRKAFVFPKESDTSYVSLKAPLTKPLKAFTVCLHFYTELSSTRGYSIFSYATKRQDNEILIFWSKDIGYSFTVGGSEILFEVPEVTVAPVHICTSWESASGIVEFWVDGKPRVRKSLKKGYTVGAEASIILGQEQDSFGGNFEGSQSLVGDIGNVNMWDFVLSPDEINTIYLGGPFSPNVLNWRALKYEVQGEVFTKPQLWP", "experiment": "flow cytometry (magnetic beads); 500 nM aptamer; SPR: Biacore T200, CM5 with 815 RU HBP, aptamer 0-1 uM in PBS (NaCl 137 mM, KCl 2.67 mM, Na2HPO4 10 mM, KH2PO4 2 mM, pH 7.4; composition given for CD), 25 C; flow: 500 nM aptamer, PBS, room temperature, 60 min", "details": "protein: commercial; chain copies: 5; label: FAM in flow cytometry"}, "Procalcitonin (PCT)": {"target": "T3, Procalcitonin (PCT) (UniProt P01258 26-141)", "T3 sequence": "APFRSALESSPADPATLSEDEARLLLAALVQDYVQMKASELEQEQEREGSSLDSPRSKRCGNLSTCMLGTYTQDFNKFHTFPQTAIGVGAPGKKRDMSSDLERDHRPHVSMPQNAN", "experiment": "flow cytometry (magnetic beads); 500 nM aptamer; SPR: Biacore T200, CM5 with 815 RU HBP, aptamer 0-1 uM in PBS (NaCl 137 mM, KCl 2.67 mM, Na2HPO4 10 mM, KH2PO4 2 mM, pH 7.4; composition given for CD), 25 C; flow: 500 nM aptamer, PBS, room temperature, 60 min", "details": "protein: commercial; label: FAM in flow cytometry"}, "Serum amyloid A1 (SAA1)": {"target": "T4, Serum amyloid A1 (SAA1) (UniProt P0DJI8 19-122)", "T4 sequence": "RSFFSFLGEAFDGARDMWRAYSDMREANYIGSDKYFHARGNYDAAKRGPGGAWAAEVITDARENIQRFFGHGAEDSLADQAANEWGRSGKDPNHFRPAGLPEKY", "experiment": "flow cytometry (magnetic beads); 500 nM aptamer; SPR: Biacore T200, CM5 with 815 RU HBP, aptamer 0-1 uM in PBS (NaCl 137 mM, KCl 2.67 mM, Na2HPO4 10 mM, KH2PO4 2 mM, pH 7.4; composition given for CD), 25 C; flow: 500 nM aptamer, PBS, room temperature, 60 min", "details": "protein: commercial; label: FAM in flow cytometry"}}}
{"binder": "Apt-15 (ssDNA) DNA: TTCAGCACTCCACGCATAGCTTCACCTACTGCCCTAGCTCAGCCGTCTCCATCCGGCCTATGCGTGCTACCGTGAA", "values": [{"measurement": "binding signal", "setting": "[1]", "result": 72.5, "unit": "RU"}]}
{"binder": "Apt-05 (ssDNA) DNA: TTCAGCACTCCACGCATAGCTTCACCTACACCGCGACCGCGTTCAGCCTCTGCAGGCCTATGCGTGCTACCGTGAA", "values": [{"measurement": "binding signal", "setting": "[1]", "result": 132, "unit": "RU"}]}
{"binder": "Apt-04 (ssDNA) DNA: TTCAGCACTCCACGCATAGCTTCATCTACCCCGCCAAGGTCAGCCACGTCAGTGTGCCTATGCGTGCTACCGTGAA", "values": [{"measurement": "binding signal", "setting": "[1]", "result": 121, "unit": "RU"}]}
{"binder": "Apt-14 (ssDNA) DNA: TTCAGCACTCCACGCATAGCTTCACCTACCGCCAATCAGCTCAGTGTGTCTCCACACCTATGCGTGCTACCGTGAA", "values": [{"measurement": "binding signal", "setting": "[1]", "result": 50.3, "unit": "RU"}]}
{"binder": "Apt-08 (ssDNA) DNA: TTCAGCACTCCACGCATAGCTCATCGCGAGCGACACGTTACCGTGCTTTACTACCGCCTATGCGTGCTACCGTGAA", "values": [{"measurement": "binding signal", "setting": "[1]", "result": 79, "unit": "RU"}]}
{"binder": "Apt-13 (ssDNA) DNA: TTCAGCACTCCACGCATAGCTCATCGCCTGCGACATGCTAGCATGCTTTACTACTGCCTATGCGTGCTACCGTGAA", "values": [{"measurement": "Kd", "setting": "[2]", "result": 1.04, "unit": "nM"}, {"measurement": "binding result", "setting": "Interleukin-6 (IL-6)", "result": "no binding"}, {"measurement": "binding result", "setting": "C-reactive protein (CRP)", "result": "no binding"}, {"measurement": "binding result", "setting": "Procalcitonin (PCT)", "result": "no binding"}, {"measurement": "binding result", "setting": "Serum amyloid A1 (SAA1)", "result": "no binding"}]}
{"binder": "Apt-07 (ssDNA) DNA: TTCAGCACTCCACGCATAGCCTTGCCTACCGGACGAAGTACTCAGTCACTCCGTGACCTATGCGTGCTACCGTGAA", "values": [{"measurement": "binding signal", "setting": "[1]", "result": 76.2, "unit": "RU"}]}
{"binder": "Apt-09 (ssDNA) DNA: TTCAGCACTCCACGCATAGCCTTGCCTACCGATCCTGGATCTCAGCTGTACCACAGCCTATGCGTGCTACCGTGAA", "values": [{"measurement": "binding signal", "setting": "[1]", "result": 87.5, "unit": "RU"}]}
{"binder": "Apt-03 (ssDNA) DNA: TTCAGCACTCCACGCATAGCTTCACCTACGAACGCCAGTGACAGCACCGATCAGTGCCTATGCGTGCTACCGTGAA", "values": [{"measurement": "binding signal", "setting": "[1]", "result": 119, "unit": "RU"}]}
{"binder": "Apt-20 (ssDNA) DNA: TTCAGCACTCCACGCATAGCTTCACCTACCGCCGAAGGCTCAGTCCGTGCTTCGGACCTATGCGTGCTACCGTGAA", "values": [{"measurement": "binding signal", "setting": "[1]", "result": 99, "unit": "RU"}]}
{"binder": "Apt-01 (ssDNA) DNA: TTCAGCACTCCACGCATAGCTTCACCTACCGCAATCCGTTGCTCAGTGCTACCGCACCTATGCGTGCTACCGTGAA", "values": [{"measurement": "binding signal", "setting": "[1]; label: FAM in flow cytometry", "result": 424, "unit": "RU"}, {"measurement": "Kd", "setting": "[2]", "result": 3.42, "unit": "nM"}, {"measurement": "binding result", "setting": "Interleukin-6 (IL-6)", "result": "no binding"}, {"measurement": "binding result", "setting": "C-reactive protein (CRP)", "result": "no binding"}, {"measurement": "binding result", "setting": "Procalcitonin (PCT)", "result": "no binding"}, {"measurement": "binding result", "setting": "Serum amyloid A1 (SAA1)", "result": "no binding"}]}
{"binder": "Apt-02 (ssDNA) DNA: TTCAGCACTCCACGCATAGCTTCACCTACCGCGCAGCTCAGTCGTTGCCCACACGACCTATGCGTGCTACCGTGAA", "values": [{"measurement": "binding signal", "setting": "[1]; label: FAM in flow cytometry", "result": 162, "unit": "RU"}, {"measurement": "Kd", "setting": "[2]", "result": 1.44, "unit": "nM"}, {"measurement": "binding result", "setting": "Interleukin-6 (IL-6)", "result": "no binding"}, {"measurement": "binding result", "setting": "C-reactive protein (CRP)", "result": "no binding"}, {"measurement": "binding result", "setting": "Procalcitonin (PCT)", "result": "no binding"}, {"measurement": "binding result", "setting": "Serum amyloid A1 (SAA1)", "result": "no binding"}]}
{"binder": "Apt-18 (ssDNA) DNA: TTCAGCACTCCACGCATAGCTTTACCTACCGCATCGCTCAGTCAACCATTGGTGGACCTATGCGTGCTACCGTGAA", "values": [{"measurement": "binding signal", "setting": "[1]", "result": 41.2, "unit": "RU"}]}
{"binder": "Apt-12 (ssDNA) DNA: TTCAGCACTCCACGCATAGCTTCACCTACTGGCATATGCCTCAGTCCACTCCTGGACCTATGCGTGCTACCGTGAA", "values": [{"measurement": "binding signal", "setting": "[1]", "result": 107, "unit": "RU"}]}
